Results taken from the nanobody polyreactivity screen of Harvey et al. (2022).

Test: yeast display, Sf9 membrane polyspecificity reagent, FACS + sequencing; frameworks hold sequencing errors
In short: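 A nanobody's polyreactivity label depends on the gate it was sorted from. Yeast display cells were stained with 10% biotinylated, detergent-solubilized Sf9 membrane reagent for 1 hour at 4 °C, enriched on streptavidin microbeads and sorted by FACS. The low and high (top ~1%) gates were set on anti-HA fluorescence for expression and streptavidin fluorescence for reagent binding.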

Sequence | polyreactivity (PSR sort gate)
QVQLVESWGGLVQAGGSLRLSCAASGRTFKIYTMGWYRQAPGKERELVAAISRGGSTYYADSVKGRFTISRDNAKNTVYLQMNSLKPEDTAVYYCAVDLYYLSSASTRQVRRDYWGQGTQVTVSS | high polyreactivity
QVQLVESGGGLVQAGGSLRLSCAASGFIFRRNAMGWYRQAPGKERELVAAIRQRGDSTYYADSVKGRFTISRDNAKITVYLQMNSLKPEDTAVYYCNAVAKLYYWRYDYWGQGTQVTVSS | low polyreactivity
QVQLVESGGGLVQAGGSLRLSCGASGSNFWPNTMGWYRPAPGKERELVAGISFGGGSTYFADSVKGRFTISRDNAKNTVYLEMNRQKPEDTAVYYCNADDPGYAGPWYWVKYDYWGKGTQVTVSS | low polyreactivity
QVQLVESGGGLVQAGGSLRLSCAASGIIFGTNAMGWYRQAPGKERELVAGITSSGDSTYYADSVKGRFTISRDNAKNTVYLQMNSLKPEDTAVYYCAAYSGVGFLWFDYWGQGTQVTVSS | low polyreactivity
QVQLVESGGGLDQAGGSLRVSCAASGSTFHRNAMGWYRQAPGKERELVAAITSGGSTNYADSVKGRFTISRDNAKNTVYLQMNSLNPEDTAVYYCAKDYLHYNRGWYDYWGQGTQVTVSW | low polyreactivity
QVQLVESGGGLVQAGGSLRLSCAASGSIFRRYAMGWYRQAPGKERELVASITSSVGRTYYADSVKGRFTISRDNAKNTVYLQMNSLKPEDTAVYYCAVYVGRWGAGGKGDYWGQGTQVTVSS | low polyreactivity
QVQLEESGGGLVQAGGSLRLSCAASGITFGFYAMGWYRQAPGKERELVASITWRGGSTYYADSVKGRFTISRVNAKNTVYLHMNSLKPEDTAVYYCAAEQYVFRPRAQEITSYDYWGQGTQVTVSS | high polyreactivity
QVQIVESGGGLVQAGGSLRLSCAACGRIFTWNVMGWYRQAPGKEREFVAAITYSGGRTRYADSVKGRFTISRDIAKNTVYLQMNSLKPEDTAFYYCAATSRGTDYWGQGTQVTVSS | high polyreactivity
QVQLVESGGGLVQAGGSLRLSCAASGFTFSTYAMGWYRQAPGKERELVAAISFSGGSTYYADSVKGRFTISRDNAMNSVYLQMNRLKPEDTAVYYCARAYTKYFEIYFIYALLYGHWGQGTQVTVSS | low polyreactivity
QVQLVESGGGLVQAGGSLRLSCAASGSTFKVYAMGWYRQAPGKERELVAAISTGGGSTYYADSVKGRFTISRDNAKNTVSLQMNSLKPEDTAVYYCAAVDRYPYAGYYWGQGTQVTVSS | high polyreactivity
QVQLVESGGGLVQAGGSLRLSCAASGSTLGRNVMGWYRQAPGKERELVAAISSRGSRTYYADSVKGRFTISRDNAKNTVYLQMNSLKPEDTAVYYCNRGWAHSNAKFDYWGQGTQVTVSS | high polyreactivity
QVQLVESGGGLVQAGGSLRLSCAASGRIFGVNAMGWYRQAPGKERELVAAINYSGGRTSYADSVKGRFTISRDHAKNTVYLQMNSLKPEDTAVYYCAKYGLRGGYLYYYWGQGTQVTVSS | high polyreactivity
QVQLVESGGGLVQAGGSLRLSCAASGITFYDYAMGWYRQAPGKERELVAAISFSGSRTYYADSVKGRFTISRDHAKNTVSLQMNSLKPDDTAVYYCAASQASNYKIYDYWGQGTQVTVSS | high polyreactivity
QVQLVESGGGLVQAGGSLRLSCAASGSIFSFYAMGWYRQAPGKERELVATISSGDNTNYADSVKGRFTISRDNAKNTVYLQMISLKPEDTAVYYCAADAWGVDREYDYWGQGTQVTVSS | low polyreactivity
QVQLVESGGGLVQAGGSLRLSCAASVLIIGYNSMGWYRQAPGTERELVASIRYSGGTTYYADSVKGRFTISRDNEKNTVNLQMNSVKPEDTAVYFCATRVTYRRRFDYWGQGTQVTVSS | high polyreactivity
QVQLVESAGGLVQAGGRLRLSCPPSGSTFAYNAMGWYRPEPGKERELVADITSGGSTKYADSVKVRFTISRDNAKNTVFLQMNSLKPEDTAVYYCAAVSVISGDFNYWGQGTEVTVSS | low polyreactivity
QVQLVESGGGLVQAGGSLRLSCAASGGIFAPYAMGWYRQAPGKERELVADITSDGGSTYYADSVKGRFTISRDNAKNTVYLQMNSLKPEDTAVYYCAAEQRYWWWGHPGDYWGQGTQVTVSS | low polyreactivity
QVQLVESVGGLVQAGGSLRISCAASGRIFTHNVMGWYRQAPGKERELVAAISASGGSTYYADSVKGRFTISRDNAKNTVYLQMNSLKPEDTAVYYCNAGDYRTFYRRFDYWGQGTQVTVSS | low polyreactivity
QVQLVESGGGLVQAGGSLRLSCAASGIIFYQYAMGRNRQAPGKERELVAAISSGVNTYYADSVKGRFTISRDNAKNTVYLQMNSLKPEDTAVYYCAAEKGRLYDWFDIYYIEYYYWGQGTQVTVSS | high polyreactivity
QVQLVESGGGLVQAGGSLRLSCAASGSILAHYAMGWYRQAPGKERELVAGISSGGSTNYADSVKGRFTISRDNAKNTVYLQMNSLKPEDTAVYYCNADQDFLFIGYLFDYWGQGTQVTVSS | low polyreactivity
QVQLVESAGGLVQAGGSISLSCAASGIIFRYYAMGSYRQAPGKERELVAVITGRGGGTYYADSVKGRFTISRDNAKNTVYLQMNSLKPEDTAVYYCAKDFTGHYPKGFDYWGQGTQVTVSS | low polyreactivity
QVQLVESGGGLVQAGGSLRLSCAASGLTFRYYAMGWYRQAPGKERELVAAINYSGGGTYYADSVKGRFTISRDNAKNTVYLQMNSLKPEDTAVYYCNAAYRGYYYWGQGTQVTVSS | high polyreactivity

Sequence | polyreactivity (PSR sort gate)
QVQLVESGGGLVQAGGSLRLSCAASGIIFVKYVMGWYRQAPGKERELVAAISLGGGSTYYADSVKGRFTISRDNAKNTVYLQMNSLKPEDTAVYYCAAVRWTSRSRYDYWGQGTQVTVSS | high polyreactivity
QVQLVESGGGLVQAGGSLRFSCAASGRTFTIYAMGWYRQAPGKERELVAAISWSEGSTYYADSVKGRFTISRDNAKNTVYLQMNSLKPEDTAVYYCAREVYGDASAPDMDYWGQGTQVTVSS | low polyreactivity
QVQLVESGGGLVQAGGSLRLSCAASGIIFVTYAMGWNRQAPGKEREFVAGINWNGGSTYYADSVKGRFTISRDNAKNTVYLQMNSLKPEDTAVYYCNAENYRVRQRSSVKYDYWGQVTQVTVSS | low polyreactivity
QVQLVESGGGLVQAGGSLRLSCAASGIIFGGNVMGRYRQAPGKVRELVAAITWSGGTTYYADSVKGRFTISRDNAKNTVYLQMNSLKPEDTAVYYCAADRVYLDYVAGTYDYWGQGTQVTVSS | low polyreactivity
QVQLVESGGGLVQAGGSLRLSCAASGFIFWRYAMGWYRQAPGKERELVAAISSGGNTKYADSVKGRFTISRDNAKNTVYLQMNSLKPEDTAVYYCAVLGKYLWSATNRFPGSYDSWGQGTQVTVSS | high polyreactivity
QVQLVESGGGLVQAGGSLRLSCAASGSIFPGYAMGWYRQAPGKERELVATISTRGSTYYADSVKGRFTISRDNAKNTVYLQMNSLKPEDTAVYYCNTDFPTAQYDYWGQGTQVTVSS | low polyreactivity
QVQLVESGGGLVQAGGSLRLICAASGNTFYGYAMGWYRQAPGKERELVASITLSGDSTYYADSVKGRFTISRDNAKNTVYVQMNSLKPEDTAVYYCAGVYTYPLGYYHDTYDYWGQGTQVTVSS | low polyreactivity
QVQLVESGGGLVQAGGSLRLSCAASGSTFYYYAMGWSRQAPGKERELVAAITRGGSTYYADSVKGRFTISRDNAKNTVYLQMNSLRPEDTAVYYCAAKSAYHGLVGGYYYWGQGTQVTVSS | high polyreactivity
QVQLVESGGGLVQAGGSLRLSCAASGFTFSLYDMGWYRQAPGKERELVAAISSDGSTNYADSVKGRFTISRDNAKNTVYLQMNSLKPEDTAVYYCAADETFLSYWLNYWGQGTQVTLSS | low polyreactivity
QVQLVESGGGLVQAGGSLRLSCAASGSIFRAYAMGWYRQAPGKERELVAAINWTDGSTYYADSVKGRFTISRDNAKNTVYLQMNSLKPEDTAVYYCAKDSIARHNYWGQGTQVTVSS | low polyreactivity
QVQLVESGGGLVQAGGSLRLSCAASGFTLDKYAMGSNRQAPGTERELVAAINWSGGSTYYADSVKGRFTISRDNAKNTVYLQMNSLKPEDTAVYYCNAQAYRRRRYYYWGQGTQVTVSS | high polyreactivity
QVHLVESGGGLVQAGGSLRLTCAASGRIFSSYAMGWYRQAPGKVRELVPAITRGGSTYYADSVKGRFTISRDNAKYTVYLQMNSLKPEDTGVYYCAGRQPYRYWFWGNEDFWGQGSQVTVSS | high polyreactivity
QVHLVESGGGLVQAGGSLRLSCAASGFIFAEYAMGWYRQEPGKERELVATINIGGSTYYADSVKGRFTISRDNAKNTVYLQMNSLKPEDTAVYYCAAEFWWGDGSQGIYDYDYWGQGSQVTVSS | low polyreactivity
QVQLVESGGGLVQAGGSLRLSCAASGRIFQIYAMGWYRQAPGKERELVAAISNRGGSTYYADSVKVRFTISRDNAKNTVYLQMNSLKPEDTAVYYFNATTGYGGYNYWGQGTKVTVSS | low polyreactivity
QDQLVESGGGLVQAGGSLRLSCAASGSIFSSNAMGWYRQAPGKERELVAAINKSGGRTYYADSVKGRFTISRDNAKNTVYLQMNSLKPEDTAVYYCNKYGLASGLDYWGQGTQVTVSS | high polyreactivity
QVQLVESGGGLVQAGGRLRLSCAASGIIFSFYTMGWYIQAPGKERELVAAITWSGGSTYYADSVKGRFTISRDNAKNTVYFQMNSLKPEDTSVYYCNARNPWSKRSQGYSWGQGTQVTVSS | low polyreactivity
QVQLVESGGGLVQAGGSLRLSCAASGSIFGWYAMGWYRQAPGKERELVAAITFSSVSTYYADSVKGRFTISRDNAKNTVYLQMNSLKPEDTAVYYCAAVVYYTFDYWGQGTQVTVSS | low polyreactivity
QVQLVESGGGLVQAGGSLRLSCAASGRTSIPYARGWYRQAPGKERELVAAISYSVGRTYYADSVKGRFTISRDNAKNTVYLQMNSLKPEDTAVYYCAAEYNGVVRDYDYWGQGTQVTVSS | low polyreactivity
QVQLVESGGGLVQAGGSLRLSCAASGSIFLWNAMGGYRQAPGKERDLVAAISSSGGSTYYADSVKGRFTISRDNAKNTVYLQMNSLKPEDTAVYYCAAVSRSYYNSYNYWGQGTQVTVSS | high polyreactivity
QVQLVESGGGLVQAGGSLRLSCAASGSTFYRYTMGWYRQAPGKERELVAAISRSGGRTYYADSVKGRFTISRDNAKNTVYLQMNSLIPEDTAVYYCNAEIASSAVQAQEGDYWGQGTQVTVSS | high polyreactivity
QLQLVESGGGLVQAGGSLRLSCAASGSIIAAYAMGWYRQAPVKERELVAVITRSGGSTYYADSVKGRFTISRDNAKNTVYLQMNSLKPEDTAVYYCAAVGTRKMYYWGQGTQVTVSS | high polyreactivity
